{"source": "patent US20260169005A1", "key": {"[1]": {"target": "MSLN", "test": "ELISA on MSLN at pH 6, column 1.5625 nM"}, "[2]": {"target": "MSLN", "test": "ELISA on MSLN at pH 7, column 1.5625 nM"}, "[3]": {"target": "MSLN", "test": "ELISA on MSLN at pH 7, column 6.25 nM"}, "[4]": {"target": "MSLN", "test": "ELISA on MSLN at pH 6, column 25 nM"}, "[5]": {"target": "MSLN", "test": "ELISA on MSLN at pH 7, column 25 nM"}, "[6]": {"target": "MSLN", "test": "ELISA on MSLN at pH 6, column 6.25 nM"}, "[7]": {"target": "MSLN", "test": "ELISA on MSLN at pH 6, column 100 nM"}, "[8]": {"target": "MSLN", "test": "ELISA on MSLN at pH 7, column 100 nM"}}, "data": [{"substance": "NC", "values": [{"measurement": "ELISA reading at 1.5625nM, pH=6", "setting": "[1]", "result": 0.026}, {"measurement": "ELISA reading at 1.5625nM, pH=7", "setting": "[2]", "result": 0.0385}, {"measurement": "ELISA reading at 6.25nM, pH=7", "setting": "[3]", "result": 0.0318}, {"measurement": "ELISA reading at 25nM, pH=6", "setting": "[4]", "result": 0.0152}, {"measurement": "ELISA reading at 25nM, pH=7", "setting": "[5]", "result": 0.0354}, {"measurement": "ELISA reading at 6.25nM, pH=6", "setting": "[6]", "result": 0.0183}, {"measurement": "ELISA reading at 100nM, pH=6", "setting": "[7]", "result": 0.0154}, {"measurement": "ELISA reading at 100nM, pH=7", "setting": "[8]", "result": 0.0239}]}]}
